Molecular target: mouse monoclonal PSA antibody
Experiment: SPR, BIAcore 3000, antibody immobilised on CM5 chip

| Substance | Kd [nM] |
| --- | --- |
| Prostate specific antigen (PSA) (from UniProt P07288 25-261) (enzyme) | 0.701 |
| PSA-GOx complex (from UniProt P07288 25-261; P13006 23-605) | 18.2 |

Reference: US20090061451A1
